Measurements taken from the supplement of paper PMC9170038.

The sequences below were run on MS2 coat protein (assay: apparent KD of MS2 coat protein; higher = weaker reporter binding). Settings: Eterna round: R107; input ligand: theophylline 20 uM.
Procedure: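 RNA-MaP round R107: designed RNA switches with theophylline, tryptophan, arginine or FMN aptamers are transcribed on-chip within common flanks. They are titrated with SNAP-549-labelled MS2 coat protein in RNA-MaP buffer (100 mM Tris pH 7.5, 80 mM KCl, 4 mM MgCl2), without ligand or with the indicated ligand. Median apparent KD per design.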

Point of comparison: “AAUACAGUGUCGGCCGCCACUGAAACAUGACAUGAGACAUGAGGAUCACCCAUGUACAUAAUAAACAGGACCGGGACCCAUGUAU [Same State Tryptophan B]”, “apparent KD of MS2 coat protein” value 42.4 nM. Against it:
- AGCCCUGUGCUAGAUACCAGCUACAUGAGGAUCACCCAUGUGCGUCAGAAAUGACUGUGUAGCCCUUGGCAGCUACUCGCAUGUA [Exclusion - Theophylline B (Freestyle 6)] — 2.1-fold lower, 20.2 nM
- AGACGAGAAGAGGUUUACCCAUGUACAGAAGGAGCGUCGUUGACGACAGGUAGGUCGCUGAAAACAUGAGGAUCACCCAUGUUGA [#05 Exclusion - Arginine A] — within 1.5-fold, 35.3 nM
- CUAAGAGUUACGGCCGCCACUAGUUGGGAUCCGCCCGUAAAAUCACAUGAGGAUCACCCAUGUCCUAGGACCGGGUAAUCGCAUU [theeternabot_sameState_MS2_Trp_B_31] — 15-fold higher, 616 nM
- GCUAGGUCUACGGCCGCCACUAGACGUGGGUUUAACAUGAGGAUCACCCAUGUGCUACAGGCGCAUAGGACCGGGUAGACCUAGC [SSTB NP+V+V2 #10 +-Same Structure] — 17-fold higher, 713 nM
- AGACAUGUAGGAUAAUUGACUAUUACAGAUACCAGACUGUCUAAUGUCCCUUGGCAGCUGCAUUACAUGAGGAUCACCCAUGUUA [JR_ExcTheophyA_Sub012] — 1.9-fold lower, 22.7 nM
- GUCGCUGAGAGAAGGAGCGUGAAGACAUGAGGAUCACCCAUGUAGAGGCGCCGAAGGCGUUCGCAGGUAGGUCGCUCUCAGUGAC [#1 Same State - Arginine B Attempt #21 (HarryS)] — 2.2-fold lower, 19.2 nM
- UUCAGCUAGUCGGCCGCCACUACAUGAGGAUCACCCAUGUUCCUAAAACACUGCUUCGGCAGUGGUAGGACCGGGACUAGCUGAG — within 1.5-fold, 48.5 nM
- UUUUAAGGGAUCGGUGCUGGUAGCAGAGAUACCAGAGUAAUGAUACUCCCUUGGCAGCUCAGUACAUGAGGAUCACCCAUGUUUU [Exclusion Theophylline A GF25] — 1.8-fold lower, 23.2 nM
- ACGAACGAUAGCGAUACCAGACGUACAUGAGGAUCACCCAUGUUUUGGGUAAGGUUAAUAGUCCCUUGGCAGCGCUUUAAGUUCG [#10 Exclusion-TheophyllineB] — 2.1-fold higher, 89.7 nM
- UGAUCCUACAGAGAUACCAGUGCCACUAAAUAACUAAACACAUGAGGAUCACCCAUGUAACACCCUUGGCAGCUCAACUAAAGGG [Same State Theophylline B GF16] — 1.7-fold lower, 25.5 nM
- ACGUAAUGCAGAAGGAGCGUCUUAUUAAUACAUGAGGAUCACCCAUGUUAUAUUUAUGGUAGACAGGUAGGUCGCUGAAGUACGA [JR_SSArginiB_Sub008] — 2.5-fold lower, 17.3 nM
- AUGCAGAACACGGCCGCCACUCCAUGUAUACAUGAGGAUCACCCAUGUAAUUUGUAUUUUUUAUAGAGGACCGGGUGAAAUGCAA [JR_SSTryptoB_Sub012] — within 1.5-fold, 38.7 nM
- GGACUAACCAGAAGGAGCGACGCAAAGCAGAAACUGCAUCCUCCGCACGAGGAUCACCCGUGUCAGGUAGGUCGCUGGUUAGUCG [ArgBX 28] — 1.7-fold lower, 24.7 nM
- AAAACAUGAGGAUCACCCAUGUACAUGGGUCGAGGACCGGUACGGCCGCCACUCGCCGCCCGCCCGCCCGCCACCUCUCCCGCCC — 4.1-fold higher, 173 nM

Same assay, conditions: Eterna round: R107; input ligand: theophylline 2 mM

Point of comparison: “AUAAUAAUCCUCAUGUAAGGUCCUCGAUAACGAGGACCGGUACGGCCGCCACUCGAACAUGAGGAUCACCCAUGUACGAGGACCA [M' - T' - T - MS2 - T'' Design 1]”, “apparent KD of MS2 coat protein” value 38.2 nM. Against it:
- AAUUGGGUUGGUGAGGUGGUUGGAGGCGAUACCAGCGUGGAAACACGCCCUUGGCAGCGCCAAAACAUGAGGAUCACCCAUGUUA [Plzen] — 13-fold higher, 484 nM
- UUAAUCAUAUAAGAAAACUUAUAUGCAGAAGGAGCGUGAUAAAACACAGGUAGGUCGCUGAAGGGAACAUGAGGAUCACCCAUGU [AstrosSSArgA#7] — within 1.5-fold, 32.4 nM
- CCGGAGACCGUGUCAGCGGAAGCAAGAACACGAGGACCGGUACGGCCGCCACUCGAAAGAAGACAUGAGGAUCACCCAUGUCCAU [theeternabot_exclusion_MS2_Trp_A_43] — 2.8-fold lower, 13.8 nM
- CUGCCAUGCAGAGAUACCAGUGAGCCCAGAACAUGAGGAUCACCCAUGUACGCCGCAGACCACCCUUGGCAGCUCUGCAUGGCAG [#$@$%] — 5.7-fold lower, 6.75 nM
- CCUUAAUAUGGAAGGAGCGCGCUAACAUGAGGAUCACCCAUGUAAAGGGUUUUAGGCUUAGCGCAGGUAGGUCGCCGUAAGAACC [#09 Exclusion - Arginine B] — 8.6-fold higher, 327 nM
- UUCAGCUAGUCGGCCGCCACUGCAUGAGGAUCACCCAUGUAGGUCCACACUGCUUCGGCAGUGAGUAGGACCGGGACUAGCUGAG — 3.5-fold lower, 10.8 nM
- GGCGCGGUGAUGGAAGCCGAACGCUAGGUACGAGGACCGGUACGGCCGCCACUCGUAGUCCUGGGACAUGAGGAUCACCCAUGUA [Same State Trp A GF20] — 2.5-fold higher, 96 nM
- AAGGGACAUGAGGAUCACCCAUGUACCGAAGGAGCGGCAGAGAUGCCAGGUAGGUCGCGGUACUUGCCGGGUCAUUCAUGCUAAA [Isxeon] — 3.3-fold lower, 11.6 nM
- UAUCUACAUAUAUAGGUUAUUCGAUUAUUUCGAGGACCGGUACGGCCGCCACUCGUUAACAUAUACAUGAGGAUCACCCAUGUUA [JR_Nu_SSTryptoA_Sub023] — 2.2-fold lower, 17.5 nM
- GUGAGCGCCGAACAUCGCUGGUCCUCUAUCCGAGGACCGGUACGGCCGCCACUCGACAUGAGGAUCACCCAUGUUGGCACUGGCG [Inbemama] — 3.3-fold lower, 11.7 nM
- AGACGAGAAGAGGUUUACCCAUGUACAGAAGGAGCGUCGUUGACGACAGGUAGGUCGCUGAAAACAUGAGGAUCACCCAUGUUGA [#05 Exclusion - Arginine A] — within 1.5-fold, 39.7 nM
- AAUACAGUGUCGGCCGCCACUGAAACAUGACAUGAGACAUGAGGAUCACCCAUGUACAUAAUAAACAGGACCGGGACCCAUGUAU [Same State Tryptophan B] — within 1.5-fold, 42.5 nM
- CUAAGAGUUACGGCCGCCACUAGUUGGGAUCCGCCCGUAAAAUCACAUGAGGAUCACCCAUGUCCUAGGACCGGGUAAUCGCAUU [theeternabot_sameState_MS2_Trp_B_31] — 13-fold higher, 499 nM
- GCUAGGUCUACGGCCGCCACUAGACGUGGGUUUAACAUGAGGAUCACCCAUGUGCUACAGGCGCAUAGGACCGGGUAGACCUAGC [SSTB NP+V+V2 #10 +-Same Structure] — 24-fold higher, 928 nM
- GUCGCUGAGAGAAGGAGCGUGAAGACAUGAGGAUCACCCAUGUAGAGGCGCCGAAGGCGUUCGCAGGUAGGUCGCUCUCAGUGAC [#1 Same State - Arginine B Attempt #21 (HarryS)] — 1.8-fold lower, 21.8 nM
- UUCAGCUAGUCGGCCGCCACUACAUGAGGAUCACCCAUGUUCCUAAAACACUGCUUCGGCAGUGGUAGGACCGGGACUAGCUGAG — within 1.5-fold, 42 nM
- ACGUAAUGCAGAAGGAGCGUCUUAUUAAUACAUGAGGAUCACCCAUGUUAUAUUUAUGGUAGACAGGUAGGUCGCUGAAGUACGA [JR_SSArginiB_Sub008] — 2.9-fold lower, 13.2 nM
- AUGCAGAACACGGCCGCCACUCCAUGUAUACAUGAGGAUCACCCAUGUAAUUUGUAUUUUUUAUAGAGGACCGGGUGAAAUGCAA [JR_SSTryptoB_Sub012] — within 1.5-fold, 42.9 nM
- GGACUAACCAGAAGGAGCGACGCAAAGCAGAAACUGCAUCCUCCGCACGAGGAUCACCCGUGUCAGGUAGGUCGCUGGUUAGUCG [ArgBX 28] — within 1.5-fold, 26.3 nM
- AAAACAUGAGGAUCACCCAUGUACAUGGGUCGAGGACCGGUACGGCCGCCACUCGCCGCCCGCCCGCCCGCCACCUCUCCCGCCC — 4.2-fold higher, 160 nM

Same assay, conditions: Eterna round: R107; input ligand: tryptophan 2.4 mM

Point of comparison: “ACGUAAUGCAGAAGGAGCGUCUUAUUAAUACAUGAGGAUCACCCAUGUUAUAUUUAUGGUAGACAGGUAGGUCGCUGAAGUACGA [JR_SSArginiB_Sub008]”, “apparent KD of MS2 coat protein” value 10.7 nM. Against it:
- GGCCUUGCGGGCGCCCGCAAGGCCGCGGAUACCAGCGAGGUCCAUCGCCCUUGGCAGCCGAACAUGAGGAUCACCCAUGUCGGUU [Same State - Theophylline A Attempt #6 (HarryS)] — within 1.5-fold, 11.3 nM
- AAUUGGGUUGGUGAGGUGGUUGGAGGCGAUACCAGCGUGGAAACACGCCCUUGGCAGCGCCAAAACAUGAGGAUCACCCAUGUUA [Plzen] — 15-fold higher, 157 nM
- UUAAUCAUAUAAGAAAACUUAUAUGCAGAAGGAGCGUGAUAAAACACAGGUAGGUCGCUGAAGGGAACAUGAGGAUCACCCAUGU [AstrosSSArgA#7] — 2.7-fold higher, 28.8 nM
- CUGCCAUGCAGAGAUACCAGUGAGCCCAGAACAUGAGGAUCACCCAUGUACGCCGCAGACCACCCUUGGCAGCUCUGCAUGGCAG [#$@$%] — within 1.5-fold, 10.9 nM
- AGCCGAAACCUUGAUACCAGAUCAUGCUGCACAUGAGGAUCACCCAUGUCGUUAAACAUGGUCCCUUGGCAGCAAGUUAGGAUCU [Usustiusso] — 9.6-fold higher, 103 nM
- CCUUAAUAUGGAAGGAGCGCGCUAACAUGAGGAUCACCCAUGUAAAGGGUUUUAGGCUUAGCGCAGGUAGGUCGCCGUAAGAACC [#09 Exclusion - Arginine B] — 24-fold higher, 252 nM
- UUUACAUGAGGAUCACCCAUGUGCCAUGAUACCAGACAUGAAAAUGUCCCUUGGCAGCAUGAAGGUACCUCAUCGGGAAACCGAA [Malomerice] — 5-fold higher, 53 nM
- UUCAGCUAGUCGGCCGCCACUGCAUGAGGAUCACCCAUGUAGGUCCACACUGCUUCGGCAGUGAGUAGGACCGGGACUAGCUGAG — within 1.5-fold, 13.7 nM
- GGCGCGGUGAUGGAAGCCGAACGCUAGGUACGAGGACCGGUACGGCCGCCACUCGUAGUCCUGGGACAUGAGGAUCACCCAUGUA [Same State Trp A GF20] — 4.8-fold higher, 51.2 nM
- AAGGGACAUGAGGAUCACCCAUGUACCGAAGGAGCGGCAGAGAUGCCAGGUAGGUCGCGGUACUUGCCGGGUCAUUCAUGCUAAA [Isxeon] — within 1.5-fold, 13.5 nM
- AGCCCUGUGCUAGAUACCAGCUACAUGAGGAUCACCCAUGUGCGUCAGAAAUGACUGUGUAGCCCUUGGCAGCUACUCGCAUGUA [Exclusion - Theophylline B (Freestyle 6)] — within 1.5-fold, 13.5 nM
- AGACGAGAAGAGGUUUACCCAUGUACAGAAGGAGCGUCGUUGACGACAGGUAGGUCGCUGAAAACAUGAGGAUCACCCAUGUUGA [#05 Exclusion - Arginine A] — 3-fold higher, 31.7 nM
- GCUAGGUCUACGGCCGCCACUAGACGUGGGUUUAACAUGAGGAUCACCCAUGUGCUACAGGCGCAUAGGACCGGGUAGACCUAGC [SSTB NP+V+V2 #10 +-Same Structure] — 4.8-fold higher, 51.3 nM
- AGACAUGUAGGAUAAUUGACUAUUACAGAUACCAGACUGUCUAAUGUCCCUUGGCAGCUGCAUUACAUGAGGAUCACCCAUGUUA [JR_ExcTheophyA_Sub012] — 1.9-fold higher, 20.4 nM
- GUCGCUGAGAGAAGGAGCGUGAAGACAUGAGGAUCACCCAUGUAGAGGCGCCGAAGGCGUUCGCAGGUAGGUCGCUCUCAGUGAC [#1 Same State - Arginine B Attempt #21 (HarryS)] — 1.6-fold higher, 17.3 nM
- UUCAGCUAGUCGGCCGCCACUACAUGAGGAUCACCCAUGUUCCUAAAACACUGCUUCGGCAGUGGUAGGACCGGGACUAGCUGAG — 24-fold higher, 256 nM
- UUUUAAGGGAUCGGUGCUGGUAGCAGAGAUACCAGAGUAAUGAUACUCCCUUGGCAGCUCAGUACAUGAGGAUCACCCAUGUUUU [Exclusion Theophylline A GF25] — 1.7-fold higher, 18.1 nM
- ACGAACGAUAGCGAUACCAGACGUACAUGAGGAUCACCCAUGUUUUGGGUAAGGUUAAUAGUCCCUUGGCAGCGCUUUAAGUUCG [#10 Exclusion-TheophyllineB] — 5.5-fold higher, 59 nM
- UGAUCCUACAGAGAUACCAGUGCCACUAAAUAACUAAACACAUGAGGAUCACCCAUGUAACACCCUUGGCAGCUCAACUAAAGGG [Same State Theophylline B GF16] — 2.5-fold higher, 26.8 nM
- GGACUAACCAGAAGGAGCGACGCAAAGCAGAAACUGCAUCCUCCGCACGAGGAUCACCCGUGUCAGGUAGGUCGCUGGUUAGUCG [ArgBX 28] — 2-fold higher, 21.7 nM
